The results in this text go back to patent publication US20210347873A1 (SHANGHAI PHARMAEXPLORER, published 2021).

B1: 2-1G11 (antibody, V domains shown)
VH: EVQLVESRGGVVQPGRSLRLSCAASGFTFSSYGMHWVRQAPGKGLEWVAVISYDGSNKYYADSVKGRFTISRDNSKNTLYLQMNSLRAEDAAVYYCARDRVDILTGYSIYGMDVWGQGTTVTVSS
VL: EIVMTQSPATLSLSPGERATLSCRASQSVSSYLAWYQQKPGQAPRLLIYDASKRATGIPARFSGSGSGTDFTLTISSLEPEDFAVYYCQQRSNWPLTFGGGTKVEIK
notes: From a human naive scFv phage library; also called human BLyS antibody 2-1G11
B2: L9G7 (antibody, V domains shown)
VH: QIQLVQSGAEVKKPGASVKVSCKASGYTFTSYGISWVRQAPGQGLEWMGWISAYNGNTNYAQKLQGRVTMTTDTSTSTAYMELRSLRSDDTAVYYCARTYYDILTGYYYYGMDVWGQGTTVTVSS
VL: B1 VL with M4L, A9G, A25T, S30D, S31T, K53N
notes: From a human naive scFv phage library; also called human BLyS antibody L9G7
B3: L1D12 (antibody, V domains shown)
VH: QVQLVQSGGGLVQPGGSLRLSCAASGFTVSSNYMSWVRQAPGKGLEWVSVIYSGGSTYYADSVKGRFTISRDNSKNTLYLQMNSLRAEDTAVYYCARGFHDILTGYGMDVWGQGTTVTVSS
VL: SSELTQDPAVSVALGQTVRITCQGDSLRNYYAGWYQQKPGQAPVLVIYGKNNRPSGIPDRFSGSSSGNTASLTITGTQAEDEADYYCSSRDNSGTHLVEFGGGTKLTVL
notes: From a human naive scFv phage library; also called human BLyS antibody L1D12; LID12
B4: 111D10D6G3 (antibody, V domains shown)
VH: QVQLQQPGAELVKPGASVKMSCKASGYTFTRHWITWVKQRPGQGLEWIGDIFPGSGSINYNEKFKSEATLTVEKSSSTAYMQLSSLTSEDSAVYYCARGDVDVWGTGTTVTVSS
VL: DIQMTQSPSSLSASLGERVSLTCRASQEIRGYLSWLQQKPNGTIKRLIYAASTLDSGVPKRFSATRSGSDFSLTISSLESEDFADYYCLQYASYPFTFGSGTKLEIK
notes: Mouse hybridoma antibody purified on Protein G
B5: 97A3C2H4 (antibody, V domains shown)
VH: EVKLVESGGGLVQPGGSLKLSCAASGFTFSTYTMSWVRQTPEKRLEWVAYISYGGGSTSYPDTVKGRFTISRDNAKNTLYLQMSSLKSEDTAIYYCTRHVTVVENSMDYWGQGTSVTVSS
VL: DILLTQSPDILSVSPGERVSFSCRASQSIGTSIHWYQQRTNGSPRLLIKYVSESFSGTPSRFSGSGSGTAFTLTINSVESEDIADYYCQQTHSWPWTFGGGTKLEIK
notes: as for B4
B6: L9G7 (antibody, human IgG1, V domains shown)
VH: B2 VH
VL: B1 VL with M4L, A9G, A25T, S30D, S31T, K53N
B7: L1D12 (antibody, human IgG1, V domains shown)
VH: B3 VH
VL: B3 VL
notes: also called LID12
B8: 111D10D6G3 (antibody, V domains shown)
VH: B4 VH
VL: B4 VL
notes: Mouse hybridoma monoclonal antibody purified on Protein G
B9: 97A3C2H4 (antibody, V domains shown)
VH: B5 VH
VL: B5 VL
notes: as for B8
B10: 8E7D9C7F5 (antibody, V domains shown)
VH: QVQLQQSGVELARPGASVKLSCKASGYTFTSYGISWVKQRTGQALEWIGEIYPRSGNTYYNEKFKGKATLTADKSSSTAYMELRSLTSEDSAVYFCARSGPITTLVATDYGMDYWGQGTSVTVSS
VL: DIVLTQSPASLAVSLGQRATISCRASKSVSTSSYSYMHWYQQKPGQPPKLLIKFASNLESGVPARFSGSGSGTDFTLNIHPVEEEDAATYYCQHSREFPYTFGGGTKLEIK
notes: as for B8

Changes are numbered by the printed parent chain.

The target of the first assay is T1, biotinylated hBLyS-ECD (human, UniProt Q9Y275 134-285, biotinylated with Biotin-X-X-NHS (molar ratio 7:1); sites not stated).
T1 construct: also called biotinylated immunogen; BLyS protein
T1 sequence (Q9Y275 134-285): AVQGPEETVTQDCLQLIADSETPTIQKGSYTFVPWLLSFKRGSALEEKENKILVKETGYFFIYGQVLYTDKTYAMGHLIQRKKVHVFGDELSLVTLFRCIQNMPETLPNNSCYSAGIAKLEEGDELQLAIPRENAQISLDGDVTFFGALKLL
Kind of assay: competitive ELISA on biotinylated hBLyS-ECD; competitor L9G7. On the procedure: The purified human BLyS antibody and hybridoma antibody were subjected to competitive enzyme-linked immunosorbent assay and the epitopes binding by different antibodies were analyzed.
Purified BLyS antibody was first diluted to a final concentration of 1.0 μg/mL with PBS, then aliquoted into a 96-well ELISA plate at 50 μL per well, and the plate was subsequently sealed with plastic film and incubated at 4° C. overnight. On the next day the plate was rinsed four times with the plate washing buffer [PBS buffer containing 0.05% (v/v) Tween20] and mixed with blocking solution [PBS buffer containing 0.05% (v/v) Tween20 and 1% (w/w) BSA], and then blocked at 37° C. for 1 hour. The blocking solution was removed, and the competitive antibody and IgG control were diluted to a final concentration of 40 μg/mL with PBS and then aliquoted into the 96-well ELISA plate at 50 μL per well. The biotinylated hBLyS-ECD was then diluted with PBS to a final concentration of 2 ng/mL and pipetted into the 96-well ELISA plate at 50 μL per well. The final concentration of competitive antibody and hBLyS-ECD was 20 μg/mL and 1 ng/mL, respectively. After incubation at 37° C. for 1 hour, the plate was rinsed four times with the plate washing buffer [PBS buffer containing 0.05% (v/v) Tween20]. 100 μL per well of HRP-labeled (horseradish peroxidase) streptavidin (purchased from Sigma) was added into the plate and the plate was incubated at 37° C. for 1 hour. The plate was then washed four times with the plate washing buffer [PBS buffer containing 0.05% (v/v) Tween20]. 100 μL of TMB substrate was aliquoted into each well and after incubation at room temperature for 5 minutes, 100 μL of stop solution (1.0 N HCl) was aliquoted into each well. A₄₅₀ₙₘ values were read by an ELISA plate reader (SpectraMax M5e, purchased from Molecular Device) and the results were shown in Tables 18A-18B. […] The data shown in the table is the inhibitory rate (%) of the binding level of the original antibody to hBLyS-ECD after addition of the competitive antibody.
In general terms: ELISA stands for enzyme-linked immunosorbent assay.
With B1, the “inhibitory rate (%)” value is 79%.

As for B2, the “inhibitory rate (%)” value was 95%.

In the case of B3, the “inhibitory rate (%)” value worked out at 90%.

In a further assay the target is T2, biotinylated hBLyS-ECD (human, UniProt Q9Y275 134-285, biotinylated with Biotin-X-X-NHS (molar ratio 7:1), sites not stated).
T2 construct: The hBLyS-ECD of Embodiment 1 after biotinylation (Embodiment 2); also called biotinylated immunogen; BLyS protein; not shown: His tag of the pCPC vector
T2 sequence (Q9Y275 134-285): as above
The assay is described as follows: ELISA, biotinylated hBLyS-ECD captured on streptavidin; antibody 0.107 nM. On the procedure:
(§1) Streptavidin was first diluted to a final concentration of 1.0 μg/mL with PBS, and then 50 μL of diluted streptavidin per well was aliquoted into 96-well ELISA plate, which was subsequently sealed with plastic film and incubated at 4° C. overnight. On the next day the plate was washed four times with the plate washing buffer [PBS buffer containing 0.05% (v/v) Tween20] and added with the blocking solution [PBS buffer containing 0.05% (v/v) Tween20 and 1% (w/w) BSA] and blocked for 2 hours at 37° C. The blocking solution was removed, the biotinylated hBLyS-ECD prepared in Embodiment 2 was diluted with PBS to a final concentration of 50 ng/mL and then aliquoted into the 96-well ELISA plate at 50 μL per well and incubated for 1 hour at 37° C. After rinsing the plate four times with the plate washing buffer [PBS buffer containing 0.05% (v/v) Tween20], 100 μl of the purified lead antibody harvested in Embodiment 1 and 2 was pipetted into each well. After incubation for 1 hour at 37° C., the plate was rinsed four times with the plate washing buffer [PBS buffer containing 0.05% (v/v) Tween20]. HRP-labeled (horseradish peroxidase) secondary antibody (purchased from Sigma) was added in and incubated at 37° C. for 1 hour. The plate was then rinsed four times with the plate washing buffer [PBS buffer containing 0.05% (v/v) Tween20]. 100 μL of TMB substrate was aliquoted into each well and after incubation for 5 minutes at room temperature, 100 μL of stop solution (1.0 N HCl) was aliquoted into each well. A₄₅₀ₙₘ values were read via an ELISA plate reader (SpectraMax M5e purchased from Molecular Devices) and the results were shown in FIGS. 5A-5B and Table 10.
For B4, the OD450 nm is 0.613.

As to B5, the OD450 nm came out at 0.899.

For the molecule B6, the OD450 nm amounted to 0.528.

On to B7, for which the OD450 nm turned out to be 0.678.

The next assay addresses T2, biotinylated hBLyS-ECD. The assay is described as follows: ELISA, biotinylated hBLyS-ECD captured on streptavidin; antibody 0.534 nM. On the procedure: as §1
For the molecule B4, the OD450 nm stood at 1.41.

For B5, the OD450 nm stood at 2.12.

Turning to B6, the OD450 nm came to 1.35.

Take B7: the OD450 nm was determined as 1.5.

For a further assay, the target named is T2, biotinylated hBLyS-ECD. The assay is described as follows: ELISA, biotinylated hBLyS-ECD captured on streptavidin; antibody 0.0213 nM. How it is done: as §1
In the case of B4, the OD450 nm amounted to 0.194.

As to B5, the OD450 nm worked out at 0.283.

With B6, the OD450 nm stood at 0.181.

As for B7, the OD450 nm was 0.262.

The target of the next assay is T2, biotinylated hBLyS-ECD. The assay is described as follows: ELISA, biotinylated hBLyS-ECD captured on streptavidin; antibody 0.00427 nM. How it is done:
as §1
Turning to B4, the OD450 nm is 0.082.

Consider B5, for which the OD450 nm is 0.105.

For B6, the OD450 nm turned out to be 0.0853.

On to B7, for which the OD450 nm is 0.135.

A further assay has as its target T1, biotinylated hBLyS-ECD. The assay is described as follows: blocking ELISA: biotinylated hBLyS-ECD on coated BAFF R, antibody 0.0064 nM. On the procedure:
BLyS antibody blocking the binding of the BLyS protein to its receptor BAFF R was detected by the receptor-ligand binding assay of BLyS protein.
BAFF R (purchased from R & D Systems) was aliquoted into 96-well ELISA plate at 50 ng per well, and the plate was sealed with plastic film and incubated overnight at 4° C. On the next day the plate was washed four times with the plate washing buffer [PBS buffer containing 0.05% (v/v) Tween20] and added with blocking solution [PBS buffer containing 0.05% (v/v) Tween20 and 1% (w/w) BSA], then blocked for 1 hour at room temperature. The blocking solution was removed and 50 μL per well of the lead antibodies prepared in Embodiment 1 and 2 were added followed by the addition of 50 μL per well of the biotinylated hBLyS-ECD prepared in Embodiment 2. After incubation for 1 hour at 37° C., the plate was washed four times with the plate washing buffer [PBS buffer containing 0.05% (v/v) Tween20]. 100 μL per well of HRP-labeled (horseradish peroxidase) avidin (purchased from Sigma) was added and incubated at 37° C. for 1 hour. The plate was then washed four times with the plate washing buffer [PBS buffer containing 0.05% (v/v) Tween20]. 100 μL of TMB substrate was aliquoted into each well and after incubation for 5 minutes at room temperature, then 100 μL of stop solution (1.0 N HCl) was aliquoted into each well. A₄₅₀ₙₘ values were read with an ELISA plate reader (SpectraMax 384plus, Molecular Device) and the results were shown in FIGS. 9A-9B and Table 15. It was shown in Table 15 that the binding of BLyS protein to its receptor BAFF R could be blocked by the BLyS antibody.
As to B8, the OD450 nm was found to be 1.29 OD450 nm.

As for B9, the OD450 nm was found to be 1.21 OD450 nm.

Turning to B10, the OD450 nm worked out at 1.38 OD450 nm.
